One may read the IC50 as the concentration needed to halve the response being measured. What is called Kd is the concentration at which binding is half-saturated. A high value points to lower affinity.

Assay [1] concerns the target T1, soluble human FcRn (human, UniProt P55899 24-297; P61769 21-119, biotinylated (Sulfo-NHS-LC-Biotin) in the ELISA; amine-coupled to CM5 chip in SPR).
T1 construct: also called shFcRn; biotinylated shFcRn
As to the kind of experiment: ELISA, competitor human IgG. A general note: ELISA stands for enzyme-linked immunosorbent assay.
Protocol: (§1) The wells were coated with 100 μl/well of 1 μg/ml biotinylated-shFcRn in Buffer A. The plate was sealed and incubated at 37° C. for 2 hours. Afterwards, the plate washed with 200 μl/well of Buffer B (Buffer B: 100 mM MES pH 6, 150 mM NaCl, 0.5% BSA IgG-free (Jackson ImmunoResearch, West Grove, Pa.), 0.05% Tween-20). […] To allow for mixing, the plate was rocked for 2 minutes, sealed and incubated at 37° C. for 2 hours. […] The plate was covered, incubated for 30 minutes at room temperature and washed 4 times with 200 μl/well of ice-cold buffer B. SureBlue TMB substrate solution (100 μl/well, KPL, Gaithersburg, Md.) was added and the plate was allowed to incubate at room temperature until color developed, which took 5 to 10 minutes. Once color developed, 100 μl/well of TMB stop solution (KPL, Gaithersburg, Md.) was added and the absorbance was measured at 450 nm. The data was plotted as absorbance vs. peptide concentration to derive the inhibitory concentration 50% (IC₅₀) values.

The target in assay [2] is T1, soluble human FcRn. The assay is described as follows: ELISA, competitor human IgG. This is another data set of the same source.
Protocol: as §1
Assay [3] addresses T1, soluble human FcRn. As to the kind of experiment: SPR, pH 6. (In general: In SPR one partner is held on a chip, and binding of the other changes the refractive index at the surface.)
Protocol: (§2) The following steps were performed to cross-link soluble human or cynomolgus FcRn to the dextran surface of a CM5 sensor chip (Biacore AB, Uppsala, Sweden) by an amine coupling reaction involving 1-ethyl-(3-dimethylaminopropyl)-carbodiimide hydrochloride (EDC) (Biacore AB, Uppsala, Sweden) and N-hydroxysuccinimide (NHS) (Biacore AB, Uppsala, Sweden) as recommended by Biacore (BIAapplications Handbook, version AB, section 4.2, Biacore AB, Uppsala, Sweden). […] Residual sites on the FcRn flow cell were blocked with 1 M ethanolamine hydrochloride pH 8.5 (Biacore AB, Uppsala, Sweden). A control flow cell was blocked with ethanolamine for reference subtraction. For analysis of the monomeric peptides, FcRn was coated to a final density of 4000-5000 response units (RU). For analysis of the peptide dimers, FcRn was coated to a density of 2000-2500 RU. All SPR measurements were performed using a BIACORE 3000 Instrument (Biacore AB Uppsala, Sweden). For measurements done at either pH 6 or pH 7.4, experiments were performed in 50 mM phosphate, 100 mM sodium chloride, 0.01% surfactant P20 (Biacore AB, Uppsala, Sweden).
(§3) Ten, 2-fold dilutions of the peptide were injected over the FcRn-CM5 chip at a rate of 20 μl/min for 2 min. The peptide was dissociated from the chip for 2.5 minutes with buffer. Any remaining peptide was removed from the chip with a 30 second injection of HBS-P buffer (Biacore AB, Uppsala, Sweden) at a rate of 30 μl/min. Sensorgrams were generated and analyzed using BiaEval software version 3.1 (Biacore AB, Uppsala, Sweden). The equilibrium RU observed for each injection was plotted against concentration. The equilibrium KD values were derived by analysis of the plots using the steady state affinity model included in the BiaEval software.
Assay [4] addresses T1, soluble human FcRn. The assay is described as follows: ELISA, competitor human IgG. This is another data set of the same source.
Protocol: as §1
The target in assay [5] is T1, soluble human FcRn. The assay is described as follows: ELISA, competitor human IgG. This is another data set of the same source.
Protocol: as §1
Assay [6] deals with T1, soluble human FcRn. As to the kind of experiment: ELISA, competitor human IgG. The source holds these as a separate data set.
Protocol: as §1
Assay [7] concerns the target T1, soluble human FcRn. As to the kind of experiment: SPR, pH 6. This is another data set of the same source.
Protocol: as §2, §3
Assay [8] deals with T1, soluble human FcRn. The assay is described as follows: ELISA, competitor human IgG. The source holds these as a separate data set.
Protocol: as §1
Assay [9] has as its target T1, soluble human FcRn. The assay is described as follows: SPR, pH 6. The source holds these as a separate data set.
Protocol: as §2, §3
Assay [10] addresses T1, soluble human FcRn. The assay is described as follows: SPR, pH 6. The source holds these as a separate data set.
Assay [11] deals with T1, soluble human FcRn. As to the kind of experiment: SPR, pH 7.4.
Assay [12] has as its target T1, soluble human FcRn. As to the kind of experiment: ELISA, competitor human IgG. The source holds these as a separate data set.
Protocol: as §1
The target in assay [13] is T1, soluble human FcRn. As to the kind of experiment: ELISA, competitor human IgG. The source holds these as a separate data set.
Protocol: as §1

Like-named read-outs stand apart in the source and are kept apart here. Numbered stars: 1 amine (or outer) side, 2 acyl side, 3 side chain; on linkers, the order of the positions; unused ones are H or OH. Bridge positions count the residues as written; N and C are the ends. Square brackets hold non-standard residues; d marks the D form. Ends that are not written are not given here. X2 = (3R)‑3‑amino‑1‑carboxymethyl‑valerolactam, O=C1[C@H](N[*:1])CCCN1CC(=O)[*:2]; NMeL = CN[C@@H](CC(C)C)C(=O)O; Pen = CC(C)(S)[C@H](N)C(=O)O; NMeA = CN[C@@H](C)C(=O)O

T1 sequence (P55899 24-297 limits assumed, chain 1 of 2): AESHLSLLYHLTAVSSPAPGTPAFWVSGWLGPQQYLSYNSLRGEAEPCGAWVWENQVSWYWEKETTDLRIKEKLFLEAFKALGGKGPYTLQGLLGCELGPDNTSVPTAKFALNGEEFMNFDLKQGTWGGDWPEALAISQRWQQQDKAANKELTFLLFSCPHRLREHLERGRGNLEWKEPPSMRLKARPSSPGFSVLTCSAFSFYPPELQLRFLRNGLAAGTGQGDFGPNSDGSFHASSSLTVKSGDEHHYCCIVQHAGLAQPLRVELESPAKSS
T1 sequence (P61769 21-119 limits assumed, chain 2 of 2): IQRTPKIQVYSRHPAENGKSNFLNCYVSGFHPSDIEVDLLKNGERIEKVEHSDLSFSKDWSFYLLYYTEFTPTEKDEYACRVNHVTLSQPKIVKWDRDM

For RFXTGHFGGLYPC (Pen at 3; disulfide; C-terminal amide) [Peptide No. 99], the IC50 in assay [1] and in assay [2] was 2000 nM throughout.

B1: Peptide No. 228 (peptide)
peptide: RF[Pen][NMeA]GHF[X2][NMeL]YPC-NH2
modifications: disulfide 3-12; N-terminus assumed
SMILES: CC(C)C[C@H]1C(=O)N[C@@H](Cc2ccc(O)cc2)C(=O)N2CCC[C@H]2C(=O)N[C@H](C(N)=O)CSSC(C)(C)[C@H](NC(=O)[C@H](Cc2ccccc2)NC(=O)[C@@H](N)CCCNC(=N)N)C(=O)N(C)[C@@H](C)C(=O)NCC(=O)N[C@@H](Cc2c[nH]cn2)C(=O)N[C@@H](Cc2ccccc2)C(=O)N[C@@H]2CCCN(CC(=O)N1C)C2=O
B1 came in with a dissociation constant Kd in [3] of 145 nM. The molecule further gave a concentration for half-maximal inhibition (IC50) in assay [2] of 1100 nM. RFXTGHFGPLYPCNGP (Pen at 3; D-Pro at 9; disulfide; C-terminal amide) [Peptide No. 144] came in with an IC50 in [1] of 1500 nM. Consider QRFXTGHFGGLYPCNGP (D-Phe at 3; Pen at 4; disulfide; C-terminal amide) [Peptide No. 96], for which the half-maximal inhibitory concentration (IC50) in [4] amounted to 11400 nM.

B2: Peptide No. 279 (peptide)
peptide: RFXTGHFGGLYPC
modifications: Pen at 3; Sar at 9; NMeLeu at 10; intrachain disulfide; C-terminal amide; N-termini joined by Bis-dPEG6 diacid linker
notes: N-terminally linked dimer
Turning to B2, in [5], the IC50 amounted to 7 nM. In turn, QRYXTGHFGGLYPCNGP (Pen at 4; disulfide; C-terminal amide) [Peptide No. 97] came in with a 50% inhibitory concentration (IC50) in assay [4] of 2400 nM. On the same count and under the same terms, as for QRWXTGHFGGLYPCNGP (Pen at 4; disulfide; C-terminal amide) [Peptide No. 98], the figure is 1500 nM. In turn, QRFXTGHFGGWYPCNGP (Pen at 4; Sar at 10; disulfide; C-terminal amide) [Peptide No. 238] showed an IC50 in [6] of 1000 nM.

B3: Peptide No. 115 (peptide)
peptide: QRF[Pen]TGHFGGFYPCNGP-NH2
modifications: disulfide 4-14; N-terminus assumed
SMILES: C[C@@H](O)[C@@H]1NC(=O)[C@@H](NC(=O)[C@H](Cc2ccccc2)NC(=O)[C@H](CCCNC(=N)N)NC(=O)[C@@H](N)CCC(N)=O)C(C)(C)SSC[C@@H](C(=O)N[C@@H](CC(N)=O)C(=O)NCC(=O)N2CCC[C@H]2C(N)=O)NC(=O)[C@@H]2CCCN2C(=O)[C@H](Cc2ccc(O)cc2)NC(=O)[C@H](Cc2ccccc2)NC(=O)CNC(=O)CNC(=O)[C@H](Cc2ccccc2)NC(=O)[C@H](Cc2c[nH]cn2)NC(=O)CNC1=O
For the molecule B3, binding in assay [7] was characterised by a dissociation constant (Kd) of 400 nM. This molecule showed a concentration for half-maximal inhibition (IC50) in [6] of 4100 nM.

B4: Peptide No. 101 (peptide)
peptide: QRF[Pen]TGHFGGIYPCNGP-NH2
modifications: disulfide 4-14; N-terminus assumed
SMILES: CC[C@H](C)[C@@H]1NC(=O)CNC(=O)CNC(=O)[C@H](Cc2ccccc2)NC(=O)[C@H](Cc2c[nH]cn2)NC(=O)CNC(=O)[C@H]([C@@H](C)O)NC(=O)[C@@H](NC(=O)[C@H](Cc2ccccc2)NC(=O)[C@H](CCCNC(=N)N)NC(=O)[C@@H](N)CCC(N)=O)C(C)(C)SSC[C@@H](C(=O)N[C@@H](CC(N)=O)C(=O)NCC(=O)N2CCC[C@H]2C(N)=O)NC(=O)[C@@H]2CCCN2C(=O)[C@H](Cc2ccc(O)cc2)NC1=O
With B4, the dissociation constant Kd in assay [7] is 340 nM. The molecule also registered a concentration for half-maximal inhibition (IC50) in assay [6] of 3400 nM.

With QRFXTGHFGGLYPENGP (Orn at 4; side-chain lactam bridge Orn 4-Glu 14; C-terminal amide) [Peptide No. 131], the concentration for half-maximal inhibition (IC50) in assay [8] worked out at 30000 nM. Turning to QRFXGGHFGGLYPCNGP (Pen at 4; disulfide; C-terminal amide) [Peptide No. 195], the Kd in assay [9] came to 760 nM. This counts as sub-micromolar.

B5: Peptide No. 201 (peptide)
peptide: QRFXTGHFGGLYPCNGP
modifications: Pen at 4; intrachain disulfide; C-terminal amide; N-termini joined by ethylene glycol-bis(succinic acid) linker
notes: N-terminally linked dimer
B5: the concentration for half-maximal inhibition (IC50) in [5] was determined as 26 nM.

B6: Peptide No. 205 (peptide)
peptide: RFXTGHFXLYPC
modifications: Pen at 3; X at 8 = 3(S)-3-amino-2-oxo-1-azepine acetic acid; disulfide; C-terminal amide
As to B6, binding in assay [3] was characterised by a dissociation constant (Kd) of 103 nM. In assay [2], this molecule displayed an IC50 of 640 nM.

B7: Peptide No. 287 (peptide)
peptide: RFXTGHFGGLYPCG
modifications: Pen at 3; Sar at 9; NMeLeu at 10; intrachain disulfide; C-termini joined on a branching Lys
notes: C-terminally linked dimer
Take B7: in [5], the IC50 turned out to be 20 nM.

B8: Peptide No. 107 (peptide)
peptide: QRFDTGHFGGLYKNGP-NH2
modifications: lactam 4-13; N-terminus assumed
SMILES: CC(C)C[C@@H]1NC(=O)CNC(=O)CNC(=O)[C@H](Cc2ccccc2)NC(=O)[C@H](Cc2c[nH]cn2)NC(=O)CNC(=O)[C@H]([C@@H](C)O)NC(=O)[C@@H](NC(=O)[C@H](Cc2ccccc2)NC(=O)[C@H](CCCNC(=N)N)NC(=O)[C@@H](N)CCC(N)=O)CC(=O)NCCCC[C@@H](C(=O)N[C@@H](CC(N)=O)C(=O)NCC(=O)N2CCC[C@H]2C(N)=O)NC(=O)[C@H](Cc2ccc(O)cc2)NC1=O
B8 showed an IC50 in [8] of more than 125000 nM.

B9: Peptide No. 197 (peptide)
peptide: RFXTGHFXLYPC
modifications: Pen at 3; X at 8 = 5,5-bicyclic dipeptide mimic (drawing CHEM-US-00085); disulfide; C-terminal amide
In turn, B9 showed a dissociation constant Kd in assay [3] of 990 nM. Consider QRFCTGHFGGLYPCN-NH2 (disulfide 4-14 (inferred)) [SEQ ID NO:24], for which the Kd stood at 6100 nM in assay [10] and 73000 nM in [11].

B10: Peptide No. 280 (peptide)
peptide: RFXTGHFGGLYPC
modifications: not fully specified; Pen at 3; Sar at 9; NMeLeu at 10; intrachain disulfide; C-termini joined on the two amines of a branching Lys
notes: C-terminally linked dimer
For the molecule B10, the IC50 in assay [5] amounted to 25 nM. This lies in the double-digit nanomolar range.

B11: Peptide No. 127 (peptide)
peptide: QRFDTGHFGGLYPKN-NH2
modifications: lactam 4-14; N-terminus assumed
SMILES: CC(C)C[C@@H]1NC(=O)CNC(=O)CNC(=O)[C@H](Cc2ccccc2)NC(=O)[C@H](Cc2c[nH]cn2)NC(=O)CNC(=O)[C@H]([C@@H](C)O)NC(=O)[C@@H](NC(=O)[C@H](Cc2ccccc2)NC(=O)[C@H](CCCNC(=N)N)NC(=O)[C@@H](N)CCC(N)=O)CC(=O)NCCCC[C@@H](C(=O)N[C@@H](CC(N)=O)C(N)=O)NC(=O)[C@@H]2CCCN2C(=O)[C@H](Cc2ccc(O)cc2)NC1=O
Turning to B11, the IC50 in assay [8] came out at 7600 nM.

B12: Peptide No. 179 (peptide)
peptide: RFXTGHFXLYPC
modifications: Pen at 3; X at 8 = 3-amino-2-oxo-1-piperidine-acetic acid (drawing CHEM-US-00081); disulfide; C-terminal amide
In assay [3], B12 came in with a Kd of 670 nM. For the same molecule, the IC50 in [2] amounted to 7200 nM. Turning to RFXTGHFGGWYPC (Pen at 3; disulfide; C-terminal amide) [Peptide No. 237], the affinity in assay [7], expressed as Kd, was 140 nM. For the same molecule, the IC50 in assay [6] is 2800 nM.

B13: Peptide No. 178 (peptide)
peptide: RFXTGHFXLYPC
modifications: Pen at 3; X at 8 = 3-amino-2-oxo-1-piperidine-acetic acid (drawing CHEM-US-00080); disulfide; C-terminal amide
The molecule B13 returned a Kd in [3] of 160 nM. In addition, the IC50 in assay [2] was 660 nM. As to CTGHFGGLYPC-NH2 (disulfide 1-11 (inferred)) [SEQ ID NO:19], the results for the dissociation constant (Kd) in [10] and in assay [11] were 20000 nM and 320000 nM, respectively. Moreover, the IC50 in [12] stood at 110000 nM.

B14: Peptide No. 182 (peptide)
peptide: RFVTGHFXLYPA
modifications: X at 8 = 3-amino-2-oxo-1-piperidine-acetic acid (drawing CHEM-US-00094); linear; C-terminal amide
B14: the IC50 in assay [13] stood at 38000 nM.

B15: Peptide No. 288 (peptide)
peptide: RFXTGHFGGLYPCGG
modifications: Pen at 3; Sar at 9; NMeLeu at 10; intrachain disulfide; C-termini joined on a branching Lys
notes: C-terminally linked dimer
As to B15, in assay [5], the IC50 worked out at 16 nM.
